# Measurements published in the DeepSol protein solubility set.
# Test: soluble on expression in E. coli; label from the status in PepcDB or PDB records
row,Sequence,soluble on expression in E. coli
1,MGSSHHHHHHSQDPMLSKDIIKLLNEQVNKEMNSSNLYMSMSSWCYTHSLDGAGLFLFDHAAEEYEHAKKLIIFLNENNVPVQLTSISAPEHKFEGLTQIFQKAYEHEQHISESINNIVDHAIKSKDHATFNFLQWYVAEQHEEEVLFKDILDKIELIGNENHGLYLADQYVKGIAKSRKS,soluble
2,MGSSHHHHHHSSGENLYFQGHMSVSAFNRRWAAVILEALTRHGVRHICIAPGSRSTPLTLAAAENSAFIHHTHFDERGLGHLALGLAKVSKQPVAVIVTSGTAVANLYPALIEAGLTGEKLILLTADRPPELIDCGANQAIRQPGMFASHPTHSISLPRPTQDIPARWLVSTIDHALGTLHAGGVHINCPFAEPLYGEMDDTGLSWQQRLGDWWQDDKPWLREAPRLESEKQRDWFFWRQKRGVVVAGRMSAEEGKKVALWAQTLGWPLIGDVLSQTGQPLPCADLWLGNAKATSELQQAQIVVQLGSSLTGKRLLQWQASCEPEEYWIVDDIEGRLDPAHHRGRRLIANIADWLELHPAEKRQPWCVEIPRLAEQAMQAVIARRDAFGEAQLAHRICDYLPEQGQLFVGNSLVVRLIDALSQLPAGYPVYSNRGASGIDGLLSTAAGVQRASGKPTLAIVGDLSALYDLNALALLRQVSAPLVLIVVNNNGGQIFSLLPTPQSERERFYLMPQNVHFEHAAAMFELKYHRPQNWQELETAFADAWRTPTTTVIEMVVNDTDGAQTLQQLLAQVSHL,soluble
3,MGSSHHHHHHSSGLVPRGSKTFIIGISGVTNSGKTTLAKNLQKHLPNCSVISQDDFFKPESEIETDKNGFLQYDVLEALNMEKMMSAISCWMESARHSVVSTDQESAEEIPILIIEGFLLFNYKPLDTIWNRSYFLTIPYEECKRRRSTRVYQPPDSPGYFDGHVWPMYLKYRQEMQDITWEVVYLDGTKSEEDLFLQVYEDLIQEL,soluble
4,MGSSRKTANAATNNFPCHGSCPEPSFQIQVIARGVRRRRSPIDQPSMEADVDTDIIDHLKTLHTSEIDARNGYEEALEDAEGKGLTSLFRDMIALHHGNAEELAGMLINAGETADDSGSFMSVVHRTIMSVRSLFDGLDGSVLPGLIDGEKRNLSKYDDALKAIAGIPSISSTLSAQRAKISEKIALMEQQKAAYEAAT,not soluble
5,MGTEGGAMIRTVALVGHAGSGKTTLTEALLYKTGAKERRGRVEEGTTTTDYTPEAKLHRTTVRTGVAPLLFRGHRVFLLDAPGYGDFVGEIRGALEAADAALVAVSAEAGVQVGTERAWTVAERLGLPRMVVVTKLDKGGDYYALLEDLRSTLGPILPIDLPLYEGGKWVGLIDVFHGKAYRYENGEEREAEVPPEERERVQRFRQEVLEAIVETDEGLLEKYLEGEEVTGEALEKAFHEAVRRGLLYPVALASGEREIGVLPLLELILEALPSPTERFGDGPPLAKVFKVQVDPFMGQVAYLRLYRGRLKPGDSLQSEAGQVRLPHLYVPMGKDLLEVEEAEAGFVLGVPKAEGLHRGMVLWQGEKPESEEVPFARLPDPNVPVALHPKGRTDEARLGEALRKLLEEDPSLKLERQEETGELLLWGHGELHLATAKERLQDYGVEVEFSVPKVPYRETIKKVAEGQGKYKKQTGGHGQYGDVWLRLEPASEYGFEWRITGGVIPSKYQEAIEEGIKEAAKKGVLAGFPVMGFKAIVYNGSYHEVDSSDLAFQIAASLAFKKVMAEAHPVLLEPIYRLKVLAPQERVGDVLSDLQARRGRILGMEQEGALSVVHAEVPLAEVLEYYKALPGLTGGAGAYTLEFSHYAEVPPHLAQRIVQERAQEG,soluble
6,MGTIADIVVTEQNAERFWIVVHRDGAPSLRLTVDQDVLLQFRLKKGMEISDDLLQHIVYADEVKKAYQQALYFLAHRMRSEHEVAAHLRKKGAPDSVIDEVLKKLRAERYVDDEAFAAAYVRTQKKTAAKGPLLIRAELERLGVLGCLIEQSLAEYTLDEQMAIARSLYEKAKKQRLAESARAFLERVRQQLMRKGFPHEVIAAVLADGGAHTEQEEREALSVQAEKAHRRYAHHPRPLYEQKMRQALYRKGFALDLINEWLRMHGNDE,not soluble
7,MGVDRQILVEGDNVTKPKNGQTVTCHYVLTLENGKKIDSSRDRGTPFKFKIGKGEVIKGWDQGVAQMSVGEKSKLTISADLGYGPRGVPPQIPANATLVFEVELLGVN,soluble
8,MGVKVASSSTFLQWTTQPIIHQSSSPSQTLASGTITSPSKRRSTVHDGRFLSCRFVTQRLNRSALFGTPSTKLHRPKSCELWKSSSSSSRPIKTQSFRRVYSANLDPFSDEEFSKKIQELTLRFNIPHHDDDENSIEPPWNEMVHLSSIEMKANSVDLPLSLRIIKKKRQWEEGVKQAGESACCSMNKAFSSMVFMIRELQSFTLHMREILFYEDLQEILLRVREEMQQSFVWLFQQVFSATPTLMVYVMILLANFTVYSIGNNSSALAAVAPLPPTITELTTVSETEETNVKFDSSVVKTFFVSSPSGSIASVGGNNNGGGGNVKPVLSGTDGDGSDGSEQFRTIIPEGVSQLSSSNFGSEPSVSGQDEHRLWNSMVEEAERMQYSNIDDSLDQETRKRFVSHVEARVEAEEDTGYFKTELMYQTELSQEPNNPLLLANYAQFLYLVSNDHDRAEEYFKRAVGVEPKDAEAFSKYATFLWRARDDLWAAEETFLEAIDADPTNSYYAANYANFLWNTGGDDTCFPLDDESHEDTI,not soluble
9,MGVMNTGETLDEKAIVASAEKALSDIAAIRTEVSKVIFGQEKVVQNTLLAILSGGHALLVGVPGLAKTKLVTTLGTVLGLDANRIQFTPDLMPSDILGSEVMDQDENGRRSFRFIKGPIFGQLLMADEINRASPRTQSALLQAMQEYHITMAGQTYELPKPFHVLATQNPLEQEGTYPLPEAQLDRFLLQVDVDYPELAAERQILLDTTGTASGEARPVIGAERLMEIQALIRQMPVSDKVVDAILSLVRSARPGHGNKLTDKNVVWGPGPRAGQSLMLTARARALYEGRLAPSLDDVHALAEPVLEHRMALTFAARAEGMSVRDVIAALVEQAKN,not soluble
10,MGWHFQQSVTMPSEWRTLALESDDSYNDFTVIMRRKLQENQVNVVNLEQNIPILRINKQITSDQVASIFKHGREAEKLLMLEVEATFRLANGESYPINAKVNRTFFDNARAALAKSEEREVIWNDMREQVARQLIVKIIALQNQIKRKLEHHHHHH,soluble
11,MGYLVSKHLALSLGSSKRGYILSPIMPPVVIVEDDGPGYPFDIYYSEGKRVLTIVHRANPEREVQDEYLHTLSLWLREMGVGRVILVGGLNMEFMPREEKHGYRWLANRHYKGPKLEAPTMEAGLGVVGPLALLYMYLDYLGVPAAMVLPYSVAERVDYEAAIRGLKVIGGSIIGVEIPTDEIEKMASMQREILETISRMIEGEEEKESGGIYM,not soluble
12,MGYTKKVYEGGSNVDQFVTRFLLKETANQIQSLLSSVESAVEAIEEQTSQLRQNHIKPSHSAAQTWCGSPTPASAPNHKLMAMEQGKTLPSATEDAKEEGLEAQISRLAELIGRLESKALWFDLQQRLSDEDGTNMHLQLVRQEMAVCPEQLSEFLDSLRQYLRGTTGVRNCFHITAVRLSDGFTFVIYEFWETEEAWKRHLQSPLCKAFRHVKVDTLSQPEALSRILVPAAWCTVGRD,not soluble
13,MHADLVIVGAGMVGSALALALEGSGLEVLLVDGGSLDVAPFKPEAPYEPRVSALSEASRRILQRLHAWDGIVARRAEPYREMQVWDGSGTGRIGFSAASVHAEVLGHIVENRVVQDALLERLHDSTTGLLANARLEQMRHSGDDWLLTLADGRQLRAPLVVAADGANSAVRRLAGCATREWDYLHHAIVTSVRCENAHRATAWQRFTDDGPLAFLPLPDRGDEHWCSIVWSTTPEQAERLMALDEDGFRAALGEAFEQRLGAILHADRRLCIPLRQRHAKRYVEPGLALVGDAAHTIHPLAGQGVNLGFLDAAVLSEVLLHALERGERLADERVLSRFERRRMPHNLGMMTAMEGFERLFQADRLPLRWLRNAGLRLVDGHHEAKALFVRQALGLSGDLPMLARVLEHHHHHH,soluble
14,MHAILNTFKSGVGDCVFMRLIKDDATFSIMIDCGKYTPEINLFIKEKLHKHIDLLIVTHIDDDHINGVCEMLIAMPEITIGKIFYNCYQLLSGEKIAALTKIVSSDIEILTQNLPKQRTDTNGKINMEHASVLASILLKNPQWNSAWEKTFYIENSLEPYPLGDGLGQLVFISPTSSELKTLDMNFAREYLRLTRHEVINAPFEGRETLFELVSRLVSMKIREREYVKKQKIAGLIDKYSVERWKKAKDFEPSGITDENKGSIAFIWEYKDTKVLFMGDAEPDIVKTAIVNKYGKVDNMKAIKVSHHGSKHSTSKELMEVIDSFDYFITGGSVGDKPSMETLVKIVDRGDNKVRTIHYNYDRNILMKDMASDESVELRQKYNFQIDTNNELEFEY,not soluble
15,MHAITNSGWVEVITGSMFSGKTEELLRRLRRAEIAGQDVAAVTPAVDDRYGEATLGSHAGRSWAATVVEPTAEGVASIPTLLNGEQVVAIDEANFFPAELVDVCQELAADGRRVVLSGTDQTFRGEPFEPVPQLMAIAEYVDKMRAICMQCGEPATRNQRLIEGEPAHYDDPTVMVGAEETYEARCRNCHVVRRELEHHHHHH,not soluble
16,MHDRASQMVIFYALAKAGSFTAAAKQMGVSTSHVSKQLGALEETLNLKLVHRTTRSLILTDAGQQFFLYCETIYNAMTEASAIMDDERDEVAGILRLGLSQSFGTMHIIPAIDKLRNQYPDLQVEVRLFDHQADMLKDGLDLWVTNFEDLPEGYVAQRLADSNFVLAASPDYLIDKKVPHHPLDLVEHNCLTYQSRYRDYSNWDFSKGNESLCVKVSGNYRVDLAEAVRDATISGWGIAYLASYLLTNEFNDGKLIQLLPGWKASQKMPIYAVYPSRKHLPRKISAVIDFLREHIGQPPYWDKALMKRVKL,soluble
17,MHEFTDTRDDSTLDEIWLVEHYPVFTQGQAGKAEHILMPGDIPVIQSDRGGQVTYHGPGQQVMYVLLNLKRRKLGVRELVTLLEQTVVNTLAELGIEAHPRADAPGVYVGEKKICSLGLRIRRGCSFHGLALNVNMDLSPFLRINPCGYAGMEMAKISQWKPEATTNNIAPRLLENILALLNNPDFEYITALEHHHHHH,not soluble
18,MHFETVIGLEVHVELKTDSKMFSPSPAHFGAEPNSNTNVIDLAYPGVLPVVNKRAVDWAMRAAMALNMEIATESKFDRKNYFYPDNPKAYQISQFDQPIGENGYIDIEVDGETKRIGITRLHMEEDAGKSTHKGEYSLVDLNRQGTPLIEIVSEPDIRSPKEAYAYLEKLRSIIQYTGVSDVKMEEGSLRCDANISLRPYGQEKFGTKAELKNLNSFNYVRKGLEYEEKRQEEELLNGGEIGQETRRFDESTGKTILMRVKEGSDDYRYFPEPDIVPLYIDDAWKERVRQTIPELPDERKAKYVNELGLPAYDAHVLTLTKEMSDFFESTIEHGADVKLTSNWLMGGVNEYLNKNQVELLDTKLTPENLAGMIKLIEDGTMSSKIAKKVFPELAAKGGNAKQIMEDNGLVQISDEATLLKFVNEALDNNEQSVEDYKNGKGKAMGFLVGQIMKASKGQANPQLVNQLLKQELDKRLEHHHHHH,soluble
19,MHGLNKDIIFPLQIFALSNNVLYNFPEQGVVPVLYVIYAQDKADSLEKRLSVRPAHLARLQLLHDEGRLLTAGPMPAVDSNDPGAAGFTGSTVIAEFESLEAAQAWADADPYVAAGVYEHVSVKPFKKVF,not soluble
20,MHGVDEDDLERQRIEKIKEVQEAVAKLTGAKFQKLENLQRMERMLNKEIELLQNATRKALETHLVTCNYAFYKSIIDEVEEMENATAVLKTFKRDNVSVTVDIVMKEPNVWIKLVNRPAKTVLIEYRDGKRNGDVIAQIKQHLFVSRRFNRPQIRIYFRNGVLAEMAQKLIRHGIVVIGEHVDKSDPSLRGKWNEELIERLGEEEDSDWDEVDEDAASIPTLPSSQSQSESTLPRLNLDISAVMLLVSNMCEPGGVNYQFKEEMINKHVECERLKPAKAEVLEKLKGHHLIMCELAYRRVAEIVKNVGGPTEKKRFEELSKTIERVQDQPSDEIGRVVKLRNIKGITSITKRVFSCAEVTKTTTVTANQKFLTHSRAKHIYFDVIEIPPRPLTEQKEATAKVI,not soluble
